Assay results from patent publication CN113637074A (SHANGHAI HUAIYUE BIOTECHNOLOGY CO LTD, dated 2021).

What was measured:
带His标签的NKp44蛋白 = target: T1, 带His标签的NKp44蛋白 (human, UniProt O95944 22-190, limits assumed); assay: ELISA, His-tagged protein coated at 1 μg/ml, anti-human IgG Fc-HRP
T1 construct: also called 人NKp44; not shown: His tag
T1 sequence (looked up): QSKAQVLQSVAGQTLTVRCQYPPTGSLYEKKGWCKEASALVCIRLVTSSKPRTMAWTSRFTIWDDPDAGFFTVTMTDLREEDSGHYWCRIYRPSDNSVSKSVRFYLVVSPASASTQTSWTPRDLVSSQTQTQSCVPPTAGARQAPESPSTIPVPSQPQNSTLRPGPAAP

带His标签的NKp30蛋白 = target: T2, 带His标签的NKp30蛋白 (human, UniProt O14931 19-138, limits assumed); assay: as above
T2 construct: also called 人NKp30; not shown: His tag
T2 sequence (looked up): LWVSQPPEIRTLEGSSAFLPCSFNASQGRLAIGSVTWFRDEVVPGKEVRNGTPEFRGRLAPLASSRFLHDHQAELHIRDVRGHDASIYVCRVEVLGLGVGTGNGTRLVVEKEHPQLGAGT

B1: NKp46-1 (antibody, V domains shown)
VH: QVQLVQSGAEVKKPGSSVKVSCKASGGTFSNYGISWVRQAPGQGLEWIGRIIPYFGITNYAQKFQGRVTITADKSTSTAYMELSSLRSEDTAVYYCADNHLLRPGQNYYPWDYWGQGTTVTVSS
VL: DIQMTQSPSSLSASVGDRVTITCRASQGISNALAWYQQKPGKAPKLLIYAASRLESGVPSRFSGSGSGTDFTLTISSLQPEDFATYYCQQHYSTPPTFGQGTKVEIK
notes: Lead antibody from a human common light chain phage library; also called Ab-1; 孔A5
What does the source list for B1?
binding result (带His标签的NKp44蛋白): no binding (tested: 10μg/ml); binding result (带His标签的NKp30蛋白): no binding (tested: 10μg/ml)
